In PMC3488251 (Nucleic Acids Research, 2012) one finds Kd data, which are given here for one molecule.

This assay deals with T1, XPF (UniProt Q92889 1-916).
T1 sequence (looked up): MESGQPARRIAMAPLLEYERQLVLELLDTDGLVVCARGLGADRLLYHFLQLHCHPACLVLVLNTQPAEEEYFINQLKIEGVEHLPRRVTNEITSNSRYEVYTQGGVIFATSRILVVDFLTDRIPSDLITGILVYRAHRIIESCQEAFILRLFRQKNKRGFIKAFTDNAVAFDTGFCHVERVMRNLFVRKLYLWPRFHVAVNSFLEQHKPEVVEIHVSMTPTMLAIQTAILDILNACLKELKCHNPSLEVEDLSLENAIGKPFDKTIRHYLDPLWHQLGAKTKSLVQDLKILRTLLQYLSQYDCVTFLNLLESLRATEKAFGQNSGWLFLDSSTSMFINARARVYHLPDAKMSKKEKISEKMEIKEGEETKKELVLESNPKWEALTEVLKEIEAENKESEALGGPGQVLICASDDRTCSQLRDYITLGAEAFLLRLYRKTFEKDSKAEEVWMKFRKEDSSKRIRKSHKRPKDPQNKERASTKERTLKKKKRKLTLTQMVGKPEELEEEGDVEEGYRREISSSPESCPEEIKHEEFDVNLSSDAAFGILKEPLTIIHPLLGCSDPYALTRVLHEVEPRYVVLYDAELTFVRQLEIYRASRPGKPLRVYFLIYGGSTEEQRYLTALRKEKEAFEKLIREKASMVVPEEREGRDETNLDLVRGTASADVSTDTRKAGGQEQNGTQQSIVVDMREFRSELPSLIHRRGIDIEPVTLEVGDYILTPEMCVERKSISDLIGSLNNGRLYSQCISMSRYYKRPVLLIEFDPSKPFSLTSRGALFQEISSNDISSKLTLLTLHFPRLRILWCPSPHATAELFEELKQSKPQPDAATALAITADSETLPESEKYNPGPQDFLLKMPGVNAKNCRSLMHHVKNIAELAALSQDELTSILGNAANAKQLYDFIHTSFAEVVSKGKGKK
The assay can be described thus: SPR.

B1: ERCC1 (natural protein, UniProt P07992 1-297, looked up)
chain: MDPGKDKEGVPQPSGPPARKKFVIPLDEDEVPPGVAKPLFRSTQSLPTVDTSAQAAPQTYAEYAISQPLEGAGATCPTGSEPLAGETPNQALKPGAKSNSIIVSPRQRGNPVLKFVRNVPWEFGDVIPDYVLGQSTCALFLSLRYHNLHPDYIHGRLQSLGKNFALRVLLVQVDVKDPQQALKELAKMCILADCTLILAWSPEEAGRYLETYKAYEQKPADLLMEKLEQDFVSRVTECLTTVKSVNKTDSQTLLTTFGSLEQLIAASREDLALCPGLGPQKARRLFDVLHEPFLKVP
A word on the Kd: it is the equilibrium constant for the complex coming apart. In turn, B1 returned a Kd of around 5 nM.
